Experimental data taken from PMC5429843.

Experiments:
[1] = biological target: His187 (UniProt position 187, ITIKQHTVTTT); experiment: NMR; settings: 20 °C, not stated (36 mM sodium phosphate + 36 mM sodium citrate, no added salt stated), folded GHaPrP90-231, 1 mM
[2] = biological target: His186 (UniProt position 186, ITVKQHTVTTT); experiment: NMR; settings: 20 °C, not stated (36 mM sodium phosphate + 36 mM sodium citrate, no added salt stated), folded RaPrP90-231, 1 mM

Substance	pKa [1]	pKa ([1]; oxidised disulfide. Progressive loss of amide dispersion and peak inhomogeneity near pH 5.)	pKa [2]	pKa ([2]; oxidised disulfide)
Major prion protein, C-terminal domain (GHaPrP90-231) (Mesocricetus auratus (golden/Syrian hamster))	4.9 ± 0.2	4.9 ± 0.1	–	–
Major prion protein, C-terminal domain (RaPrP90-231) (Oryctolagus cuniculus (rabbit))	–	–	5.1	5.1 ± 0.1
